Data reported in IntAct's records for PubMed 11971877.

B1: Proline-serine-threonine phosphatase-interacting protein 1 (Homo sapiens), O43586 (parent)
chain: MMPQLQFKDAFWCRDFTAHTGYEVLLQRLLDGRKMCKDMEELLRQRAQAEERYGKELVQIARKAGGQTEINSLRASFDSLKQQMENVGSSHIQLALTLREELRSLEEFRERQKEQRKKYEAVMDRVQKSKLSLYKKAMESKKTYEQKCRDADDAEQAFERISANGHQKQVEKSQNKARQCKDSATEAERVYRQSIAQLEKVRAEWEQEHRTTCEAFQLQEFDRLTILRNALWVHSNQLSMQCVKDDELYEEVRLTLEGCSIDADIDSFIQAKSTGTEPPAPVPYQNYYDREVTPLTSSPGIQPSCGMIKRFSGLLHGSPKTTSLAASAASTETLTPTPERNEGVYTAIAVQEIQGNPASPAQEYRALYDYTAQNPDELDLSAGDILEVILEGEDGWWTVERNGQRGFVPGSYLEKL
partner: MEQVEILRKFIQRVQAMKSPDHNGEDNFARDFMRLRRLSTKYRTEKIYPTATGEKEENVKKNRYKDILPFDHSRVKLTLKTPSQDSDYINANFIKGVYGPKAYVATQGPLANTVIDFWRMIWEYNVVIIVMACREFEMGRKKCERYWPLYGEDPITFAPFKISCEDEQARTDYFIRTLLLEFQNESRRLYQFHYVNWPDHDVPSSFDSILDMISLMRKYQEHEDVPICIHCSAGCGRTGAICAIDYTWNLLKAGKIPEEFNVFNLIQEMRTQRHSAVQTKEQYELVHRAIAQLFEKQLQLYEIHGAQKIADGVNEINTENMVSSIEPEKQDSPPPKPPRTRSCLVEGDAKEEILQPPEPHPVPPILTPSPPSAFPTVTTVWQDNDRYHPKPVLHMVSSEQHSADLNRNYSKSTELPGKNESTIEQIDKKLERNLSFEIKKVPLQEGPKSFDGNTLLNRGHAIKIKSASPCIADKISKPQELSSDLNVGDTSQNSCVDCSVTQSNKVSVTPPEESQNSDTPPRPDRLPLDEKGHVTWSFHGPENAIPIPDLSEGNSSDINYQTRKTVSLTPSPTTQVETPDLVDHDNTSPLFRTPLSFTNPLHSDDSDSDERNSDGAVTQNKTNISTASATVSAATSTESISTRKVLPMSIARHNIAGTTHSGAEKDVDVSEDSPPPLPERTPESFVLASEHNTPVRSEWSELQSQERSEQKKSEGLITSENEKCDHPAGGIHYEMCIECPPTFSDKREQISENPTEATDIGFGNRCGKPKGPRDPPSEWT

Variants of: B1
Conditions: with ptn12_human PTPN12, Q05209

| Variant | effect of a mutation on the interaction |
| --- | --- |
| E250Q | decreasing interaction |
| A230T | decreasing interaction |
